Data reported in paper doi:10.1101/2023.06.21.545551, “Intrinsically disordered regions in the transcription factor MYC:MAX modulate DNA binding via intramolecular interactions”.

Assays:
MYC(256-299) = MYC(256-299) (UniProt P01106-1); assay: NMR; SPR: 25 mM HEPES pH 8, 150 mM NaCl, 1 mM TCEP, 0.01% Tween-20, 3 mM EDTA, temperature not stated; NMR: 20 mM HEPES pH 7, 100 mM NaCl (E100; or E300), 2 mM TCEP, 5% D2O, 298 K (complexes) or 283 K (disordered fragments); details: protein: recombinant; tags: His6-ZZ-TEV cleaved; 15N; blunt
Chain of MYC(256-299) (P01106 other isoform, or with tags, fused parts or gaps): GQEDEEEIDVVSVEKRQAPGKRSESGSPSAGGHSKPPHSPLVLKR

Mb0 peptide MYC(11-34) = Mb0 peptide MYC(11-34) (UniProt P01106-1); assay: NMR; equimolar DNA; SPR: 25 mM HEPES pH 8, 150 mM NaCl, 1 mM TCEP, 0.01% Tween-20, 3 mM EDTA, temperature not stated; NMR: 20 mM HEPES pH 7, 100 mM NaCl (E100; or E300), 2 mM TCEP, 5% D2O, 298 K (complexes) or 283 K (disordered fragments); details: protein: recombinant; tags: His6-MBP-TEV cleaved; 13C-MTC on C25; blunt
Chain of Mb0 peptide MYC(11-34) (P01106 other isoform, or with tags, fused parts or gaps): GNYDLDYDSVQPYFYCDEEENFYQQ

[1] = target: MYC(1-439)_C0,C25;MAX(2-160) (human?;human?, UniProt P01106-1;P61244 ;, C70A;C117A;C133A;C171A;C188A;C208A;C300A;C342A;C438A|); assay: NMR; 13C-MTC on C25; 10-fold DNA; SPR: 25 mM HEPES pH 8, 150 mM NaCl, 1 mM TCEP, 0.01% Tween-20, 3 mM EDTA, temperature not stated; NMR: 20 mM HEPES pH 7, 100 mM NaCl (E100; or E300), 2 mM TCEP, 5% D2O, 298 K (complexes) or 283 K (disordered fragments); details: protein: recombinant;recombinant; tags: 13C-MTC label on C25;N-Strep-TEV, cleavable; copies: 1;1; blunt
Chain of MYC(1-439)_C0,C25;MAX(2-160) (P01106 other isoform, or with tags, fused parts or gaps C70A;C117A;C133A;C171A;C188A;C208A;C300A;C342A;C438A|, chain 1 of 2): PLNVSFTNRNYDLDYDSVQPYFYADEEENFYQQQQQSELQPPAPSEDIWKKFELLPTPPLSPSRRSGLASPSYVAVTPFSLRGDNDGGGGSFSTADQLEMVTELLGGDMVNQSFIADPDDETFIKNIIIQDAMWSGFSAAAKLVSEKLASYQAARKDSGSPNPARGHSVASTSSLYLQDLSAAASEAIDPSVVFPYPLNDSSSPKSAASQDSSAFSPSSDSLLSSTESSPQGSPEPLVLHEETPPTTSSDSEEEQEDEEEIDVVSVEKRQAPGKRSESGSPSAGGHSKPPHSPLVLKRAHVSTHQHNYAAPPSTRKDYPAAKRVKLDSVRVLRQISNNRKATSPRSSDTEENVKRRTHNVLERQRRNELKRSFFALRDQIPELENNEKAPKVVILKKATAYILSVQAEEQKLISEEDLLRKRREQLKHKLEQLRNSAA
Chain of MYC(1-439)_C0,C25;MAX(2-160) (P61244 other isoform, or with tags, fused parts or gaps C70A;C117A;C133A;C171A;C188A;C208A;C300A;C342A;C438A|, chain 2 of 2): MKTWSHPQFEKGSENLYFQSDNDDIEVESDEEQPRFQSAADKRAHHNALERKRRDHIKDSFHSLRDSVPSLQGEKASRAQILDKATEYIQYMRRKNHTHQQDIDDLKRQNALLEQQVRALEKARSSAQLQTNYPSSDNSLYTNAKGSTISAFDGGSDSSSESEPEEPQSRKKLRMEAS

[2] = target: T1, MYC(151-439);MAX(2-160) of commercial complex (human?;human?, UniProt P01106-1;P61244 ;, |); assay: SPR; affinity between P3+P6 and full length; SPR: 25 mM HEPES pH 8, 150 mM NaCl, 1 mM TCEP, 0.01% Tween-20, 3 mM EDTA, temperature not stated; NMR: 20 mM HEPES pH 7, 100 mM NaCl (E100; or E300), 2 mM TCEP, 5% D2O, 298 K (complexes) or 283 K (disordered fragments); details: protein: commercial;commercial; copies: 1;1; label: 5'-biotin on strand 1; blunt
T1 sequence (P01106 166-454, chain 1 of 2): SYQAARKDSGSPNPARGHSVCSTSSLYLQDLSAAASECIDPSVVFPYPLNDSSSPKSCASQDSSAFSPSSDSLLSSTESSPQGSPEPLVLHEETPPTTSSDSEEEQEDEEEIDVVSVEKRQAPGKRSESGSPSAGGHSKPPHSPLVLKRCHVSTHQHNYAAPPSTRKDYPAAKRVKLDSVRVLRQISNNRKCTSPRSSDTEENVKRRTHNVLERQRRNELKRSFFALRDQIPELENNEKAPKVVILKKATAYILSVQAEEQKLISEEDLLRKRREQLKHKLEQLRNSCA
T1 sequence (P61244 other isoform, or with tags, fused parts or gaps |, chain 2 of 2): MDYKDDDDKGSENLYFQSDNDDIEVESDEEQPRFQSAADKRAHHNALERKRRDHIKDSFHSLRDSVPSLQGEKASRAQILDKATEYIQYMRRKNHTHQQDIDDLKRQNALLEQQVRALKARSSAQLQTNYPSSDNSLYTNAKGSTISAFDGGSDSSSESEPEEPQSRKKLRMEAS

[3] = target: T2, MYC(2-439) full-length;MAX(2-160) (human?;human?, UniProt P01106-1;P61244 ;, |); assay: SPR; range over canonical and mutant E-Boxes; SPR: 25 mM HEPES pH 8, 150 mM NaCl, 1 mM TCEP, 0.01% Tween-20, 3 mM EDTA, temperature not stated; NMR: 20 mM HEPES pH 7, 100 mM NaCl (E100; or E300), 2 mM TCEP, 5% D2O, 298 K (complexes) or 283 K (disordered fragments); details: protein: recombinant;recombinant; tags: none;N-Strep-TEV, cleavable; copies: 1;1; label: 5'-biotin on strand 1; blunt
T2 sequence (P01106 17-454, chain 1 of 2): as the sequence (P01106 other isoform, or with tags, fused parts or gaps C70A;C117A;C133A;C171A;C188A;C208A;C300A;C342A;C438A|, chain 1 of 2) above, with A24C, A69C, A116C, A132C, A170C, A187C, A207C, A299C, A341C, A437C counted along it
T2 sequence (P61244 other isoform, or with tags, fused parts or gaps |, chain 2 of 2): as the sequence (P61244 other isoform, or with tags, fused parts or gaps C70A;C117A;C133A;C171A;C188A;C208A;C300A;C342A;C438A|, chain 2 of 2) above

[4] = target: MYC(352-437);MAX(2-160) co-expressed (human?;human?, UniProt P01106-1;P61244 ;, |); assay: SPR; strongest of the four DNAs; Kd only in figure; SPR: 25 mM HEPES pH 8, 150 mM NaCl, 1 mM TCEP, 0.01% Tween-20, 3 mM EDTA, temperature not stated; NMR: 20 mM HEPES pH 7, 100 mM NaCl (E100; or E300), 2 mM TCEP, 5% D2O, 298 K (complexes) or 283 K (disordered fragments); details: protein: recombinant;recombinant; tags: N-His6 uncleavable;none; copies: 1;1; label: 5'-biotin on strand 1; blunt
Chain of MYC(352-437);MAX(2-160) co-expressed (P01106 other isoform, or with tags, fused parts or gaps |, chain 1 of 2): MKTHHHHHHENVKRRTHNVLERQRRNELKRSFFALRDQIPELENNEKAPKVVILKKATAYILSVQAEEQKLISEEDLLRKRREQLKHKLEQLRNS
Chain of MYC(352-437);MAX(2-160) co-expressed (P61244 whole entry, chain 2 of 2, the tested form may be a part): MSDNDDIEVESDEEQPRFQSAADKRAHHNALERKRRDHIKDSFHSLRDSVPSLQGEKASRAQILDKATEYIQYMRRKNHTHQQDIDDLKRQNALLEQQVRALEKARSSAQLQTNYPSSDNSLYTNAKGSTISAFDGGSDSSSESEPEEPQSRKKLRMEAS

[5] = target: T2, MYC(2-439) full-length;MAX(2-160); assay: SPR; negative control bound only by MYC(352-437):MAX; SPR: 25 mM HEPES pH 8, 150 mM NaCl, 1 mM TCEP, 0.01% Tween-20, 3 mM EDTA, temperature not stated; NMR: 20 mM HEPES pH 7, 100 mM NaCl (E100; or E300), 2 mM TCEP, 5% D2O, 298 K (complexes) or 283 K (disordered fragments); details: protein: recombinant;recombinant; tags: none;N-Strep-TEV, cleavable; copies: 1;1; label: 5'-biotin on strand 1; blunt
[6] = target: T1, MYC(151-439);MAX(2-160) of commercial …; assay: as above; details: protein: commercial;commercial; copies: 1;1; label: 5'-biotin on strand 1; blunt

B1: E-Box (NMR) (dsDNA)
DNA 1: CCGGTCACGTGGCCTA
DNA 2: TAGGCCACGTGACCGG
binding result (MYC(256-299)): no binding
binding result (Mb0 peptide MYC(11-34)): no binding
binding result [1]: binds

B2: E-Box (SPR) (dsDNA)
DNA 1: CCGGTCACGTGGCCTA
DNA 2: TAGGCCACGTGACCGG
binding result [2]: binds
binding result [3]: binds
binding result [4]: binds

B3: Negative control (dsDNA)
DNA 1: CCGGTTTAGCAGCCTA
DNA 2: TAGGCTGCTAAACCGG
binding result [5]: no binding
binding result [6]: no binding
